Assay results: the RNAGym collection of RNA variant scans (doi:10.1073/pnas.2313332121)
Fewer inactive variants are shown than the library holds.

B1: TPR 5TU (parent)
chain: GGAUCUUCUCGAUCUAACAAAAAAGACAAAUCUGCCACAAAGCUUGAGAGCAUCUUCGGAUGCAGAGGCGGCAGCCUUCGGUGGCGCGAUAGCGCCAACGUUCUCAACUAUGACACGCAAAACGCGUGCUCCGUUGAAUGGAGUUUAUCAUG

Variants of: B1
Test: polymerase ribozyme fitness, log enrichment relative to wild type (log ratio); higher = more active; in vitro selection for triplet polymerase activity
Summary of the method: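 A heterodimeric triplet polymerase ribozyme had each of its subunits mutagenized by PCR into a library, which was transcribed. One round of in vitro selection, done in triplicate, annealed each library with a biotinylated primer, its partner subunit and triplets, then incubated it frozen at −7 °C before gel excision of extended constructs, streptavidin-bead capture and RT-PCR. Fitness is the logarithm of genotype enrichment relative to wild-type enrichment, based on Illumina sequencing of inputs and outputs and inverse-variance-weighted replicate averages. A base-2 logarithm is used, and genotypes were kept only with ≥10 input reads and ≥1 read per output.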

Variant | polymerase ribozyme fitness (log ratio)
A52C C96U | -1.77
G50A U78A G84A G100C A137G | ≤ -4.2
A52G C85U G92A C96A | ≤ -4.2
A52U C76U A150U | -1.19
G50U C85A A97U G140A | ≤ -4.2
A52C G88A A113U A121C | ≤ -4.2
A52U U55G C76U | -4.08
A52C U102A | -1.68
A52G C105A | -0.578
C51U G70A A91C A97C U144C | ≤ -4.2
C51U U56G C75U U134C | -2.81
C51G A73G G94U C95U C118A A142U G152A | ≤ -4.2
G50C U53C G83A C95G | ≤ -4.2
C51U A110G | -3.47
A52C A115G | -2.09
G50U G94U C103U | -2.08
G50C A52G U53A G81C U82G G88U C105G A150G | ≤ -4.2
A52U G71C G92A C96G | ≤ -4.2
U53A C54A G58C A64C G126A U135C A138C | ≤ -4.2
A52C A91C | ≤ -4.2
A52C C103U | -0.611
A52G G117A | -0.121
A52G G117U | 0.374
A52G G84U C118G G128A U144G U145A | ≤ -4.2

Variant | polymerase ribozyme fitness (log ratio)
C51U G92U C93U C95U | -2.56
G50C U56A G62C C72U C95U | ≤ -4.2
A52C G70C C85U C125U | ≤ -4.2
G50U C85G | -3.51
G50U U78C | -2.27
A52G C75U | -0.679
A52U C118U | -1.14
G50C G83C G94A C132U U135C A142U | ≤ -4.2
G50A U56A C95U | -1.99
G50U A122G U135A | -0.743
A52G G65A G68U G92U C103U A119U U139C | ≤ -4.2
A52C A107C A122C A138G | ≤ -4.2
G50C C93G C99G G126U | ≤ -4.2
A52U G140C | ≤ -4.2
G50U G58A G84U C105U G133A G141C | ≤ -4.2
A52G G59A C75U | -0.737
C51A A91G C95U A97G A119U | ≤ -4.2
C51A G59U A64G C85U C99G A113G A120G U127G G140U U148A | ≤ -4.2
A52G C63G | -0.179
G50U G58A A66U C79U C87U G88C A121C | ≤ -4.2
A52U C85U | -1.59
G50U G58U | 0.771
G50C C116A U144A C149G | ≤ -4.2
G50U C54U G81C C85A G117A | -0.79

Variant | polymerase ribozyme fitness (log ratio)
C51U C75U C87U U104C A115G A121U A142C | -4.13
A52U A150C | -4.03
A52G G84A C99U A120G | -1.11
G50A U134C | -1.29
A52G G80U | -3.34
A52U C87U | -2.81
C51A G58C U111A | ≤ -4.2
C51U A60G C79G C85G C129A | ≤ -4.2
G50U C57U A110G G140A | ≤ -4.2
U53A A60U U77C G80C A91G A142C | ≤ -4.2
A52U U55A C87G | ≤ -4.2
A52U U53A G58U | -0.762
A52G G65A U145A | -1.38
C51U A52U G94U | -2.8
C51U C69A C96U G141C | -3.18
G50A G83A C87A A91C G92A U146A | ≤ -4.2
A52G C85A | -2.19
C51U A142C | -0.909
C51A C76G G88C C103A C125A G140A | ≤ -4.2
G50C G84U | -3.79
C51A U55G | -2.17
A52C U56C G84U | -4.01
G50U G136U C149G | -4.16
G50U A97G | -0.0233

Variant | polymerase ribozyme fitness (log ratio)
C51G G92C | -2.71
G50C G83A C87U G141U | ≤ -4.2
C51U G80A G81A A150U | -1.5
A52C U56A C75U A89U U90G C95G C123G C125A | ≤ -4.2
G50C U56G A64G G83A C105G U109G | ≤ -4.2
A52G A60G U77G A91U G133U | ≤ -4.2
C51G G88A A91G A115U U144G U151C | ≤ -4.2
A52G U55A | -0.0825
A52G U55C | -0.523
G50U G92C | -0.0562
G50C A52G G62A G74U G86C C116U | ≤ -4.2
C51G G81C C85G C123U G143A | -3.82
G50C G94U A121U G128U | ≤ -4.2
G50C A73C C95G C105G | ≤ -4.2
A52U C85U C96A C116U | -2.69
G50C G65C C87U | -4.13
U53A A122U A138U | -4.07
C51G G81U C96U | -1.16
U53A A91C C96U | ≤ -4.2
A52G G58U G84U C96A C99U | -4.02
G50A U145A | -0.516
A52C C69A C105U | -3.13
C51U U53A C93A | -4.05
G50C C75G | ≤ -4.2

Variant | polymerase ribozyme fitness (log ratio)
G50C U53A | -3.26
A52C G92U C116G | -1.7
A52G C93A G140A | ≤ -4.2
C51A A64G C87A G128U G140C | ≤ -4.2
U53A A89C | -0.605
A52G C87U C116U C149G | -3.76
G50U A52C C57A G58U A107G | ≤ -4.2
G50A U144A | -1.6
G50C G74A G92U | ≤ -4.2
A52G C69U C93U | -2.89
G50A G88A | ≤ -4.2
A52U G86C G88A C105A G141U | ≤ -4.2
A52G U82A C96G | 0.187
G50C A52C G128A | ≤ -4.2
C51A U82G A115U | -3.17
A52U G58U C95U | -1.52
A52G A66C G67C G141C | ≤ -4.2
A52U G81U C96U C114A A142U | -3.93
C51U C93G | -3.69
C51U U55C A106G U151G | ≤ -4.2
G50A G83C U144A | -2.07
C51U C57A C63U G65C | ≤ -4.2
C51U U56A G65U G81C G136C A138G G141C A142G | ≤ -4.2
C51U A60G G86A | -1.75

Variant | polymerase ribozyme fitness (log ratio)
G50A G86C C99U U104G C116G | ≤ -4.2
C51U A60G A66C U82C G94A U109A G136A A138C | ≤ -4.2
C51G C72A C79A G94A | ≤ -4.2
C51U G94U C114A G140A | ≤ -4.2
C51U G86U U145G | -2.27
G50U G140U | -3.88
A52C G83A | -2.46
U53A A73G U78C G133A | ≤ -4.2
A52G G67A G126U | ≤ -4.2
C51A C57G | -2.19
G50C C103A U139C | ≤ -4.2
A52C A138G | -3.62
A52G G83C | -2.18
A52G A113U A150C | ≤ -4.2
A52G G83C C129A | -2.88
G50C C96U | -2.14
G50C C96G | -2.66
A52G U77G U82C A91G A106U G140A U144A G152U | ≤ -4.2
A52C U55A A60C C76U G83A C85U C129G A150G | ≤ -4.2
G50U A107U | -3.73
A52G G59C A60C C96G G126A A142U | ≤ -4.2
C51U A150G | -1.14
G50C G83C U135A | ≤ -4.2
A52G C85G G141A | -1.37

Variant | polymerase ribozyme fitness (log ratio)
A52U U55G C87A A119U | ≤ -4.2
G50U G80A A91G C99G | ≤ -4.2
A52U A89C | -3.05
A52U C57G G58A C95U C123U G126U A138U | ≤ -4.2
A52G C72U | -0.83
C51U C57A G84A U109G C123A | -1.74
C51U U104G | -1.04
A52G G59C C99U | -1.42
G50C C57A A64U U78G | ≤ -4.2
G50C A52C C118G | -3.55
A52G U53G U77G C131G | ≤ -4.2
G50C G59C | -3.38
G50C G59C U102G | -2.34
G50A G92A U101G G117C | -3.96
A52U C54U U55A C57G A73G G83C | ≤ -4.2
A52G C54U | 0.381
C51U G94A C96U G126C | -1.72
U53A A91G U144G | -2.54
C51U G67C U135C | ≤ -4.2
C51U U55G A98U A115G | -3.09
A52U C85G C123A G140A | ≤ -4.2
G50U C95U | -0.241
C51U G67A G83U G94A A98C C99G U109C A120U U145G | ≤ -4.2
